The results in this text go back to article PMC10017909, “Improving ethanol tolerance of ethyl carbamate hydrolase by diphasic high pressure molecular dynamic simulations” (AMB Express, 2023).

Residue numbers refer to the chain shown, from its start. Names may count otherwise.

What is called Km is the substrate concentration at which the rate is half of its maximum.

Substrate in the data set: CCOC(N)=O
The data set can be described thus: purified protein. The data set is classed as biochemical, Lysinibacillus fusiformis. Particulars: free enzyme, EC 0-300 mM, activity assay at 37 °C, pH not stated.

B1: EC hydrolase (ethyl carbamate hydrolase) (Lysinibacillus fusiformis; H68A/K70R/S325N) (protein)
chain: MTTDLHLKSVEELAPLLASKSLSPVELTKAILDFAEESQPKINSYMAFYREEALARAKEVEQEILQGAYRGMYHGIPMALKDNLYFKDKITTMSSKIHKDFVSDYDATVVEKLRDAGVIFTGKLSMHEYAWGITNNNPHYGPVRNPWDLDKIPGGSSGGSGAAVAAGASVASLGTDTAGSIRIPSSACGIVGLKPTHGRVSKYGCYPLAWSLDHIGPMTKTVKDAAGLLEVIAGFDHQDPTCVNVPVDNYEKQLTGNIKDLVIGINEEYFFNNVDADVEKAVRASIQSLVDSGAKVEVVRIPSLQYAEWAELVTSLSEAAAIHHNDLQKRPQDFGDDIRLLFELGELPSAVDYLQAQQVRRQIKQEFTEIFNKVDVLISPTLPIVASTIGDDFAELNGQKVDLIDNIIRFTGPSNLTGLPALSVPCGFKGNLPIGLQIIGPAFKEGRILNVGYAVEQANPQRNRKPNIFANI
In the case of B1, the Michaelis constant (Km) came to 28.2 ± 4.41 mM.

B2: EC hydrolase (ethyl carbamate hydrolase) (Lysinibacillus fusiformis; K70R/S325N) (protein)
chain: B1 chain with A68H
With B2, the Km was 40.82 ± 3.56 mM.

B3: EC hydrolase (ethyl carbamate hydrolase) (Lysinibacillus fusiformis) (protein)
chain: B1 chain with A68H, R70K, N325S
Regarding B3, the Km was 37.67 ± 3.55 mM.

B4: EC hydrolase (ethyl carbamate hydrolase) (Lysinibacillus fusiformis; K70R) (protein)
chain: B1 chain with A68H, N325S
As for B4, the Km was found to be 33.38 ± 5.67 mM.

B5: EC hydrolase (ethyl carbamate hydrolase) (Lysinibacillus fusiformis; H68A) (protein)
chain: B1 chain with R70K, N325S
Turning to B5, the Km is on record as 31.38 ± 5.61 mM.

B6: EC hydrolase (ethyl carbamate hydrolase) (Lysinibacillus fusiformis; A178L) (protein)
chain: B1 chain with A68H, R70K, A178L, N325S
As for B6, the Km is 96.78 ± 6.09 mM.

B7: EC hydrolase (ethyl carbamate hydrolase) (Lysinibacillus fusiformis; S325N) (protein)
chain: B1 chain with A68H, R70K
In the case of B7, the Km is 45.52 ± 9.41 mM.

B8: EC hydrolase (ethyl carbamate hydrolase) (Lysinibacillus fusiformis; H68A/S325N) (protein)
chain: B1 chain with R70K
Turning to B8, the Km was determined as 33.27 ± 2.31 mM.
